Experiment [1] concerns the target T1, SiaD (Pseudomonas aeruginosa, UniProt A0A069QEY1). The experiment is described as follows: ITC (also HPLC assay of c-di-GMP production from GTP). It counts as binding. On the set-up: gene pleD_6; SiaD alone, full length.
Experiment [2] has as its target T1, SiaD. The experiment in a line: X-ray crystal structure of SiaC–SiaD–GpCpp complex, […] Å. It counts as binding. On the set-up: gene pleD_6; full-length SiaD (redefined start at the upstream ATG codon); with SiaC (2:4 SiaD–SiaC complex).
The target in experiment [3] is T1, SiaD. The experiment in a line: HPLC DGC activity assay with […] c-di-GMP; thermal shift (+[…] ℃ at […]); SEC; inhibition abolished by R201A. On the set-up: gene pleD_6; full-length SiaD, alone and in the SiaC–SiaD complex. It counts as biochemical.
In experiment [4] the target is SiaD (full length, sumo-His tag removed) (Pseudomonas aeruginosa). The experiment is described as follows: SEC-MALS; single proteins: SiaC at 1.5 mg/ml, SiaD at 8 mg/ml, WTC-030S5 column, 20 mM HEPES pH 7.0, 150 mM NaCl, DTT.
For experiment [5] the target is unchanged. The experiment in a line: SAXS; synchrotron solution SAXS (SEC-SAXS for SiaD), 20 mM HEPES pH 8.0, 150 mM NaCl, 1 mM DTT, 25°C; 8 mg/ml SiaD or 11 mg/ml SiaC-SiaD complex.
The target is the same in experiment [6]. The experiment in a line: native gel or EMSA; blue native PAGE, 8% gel, SiaD (25 ug) alone or mixed with excess SiaC (35 ug), 50 min at 15 mA, Coomassie stain. A general note: A gel shift assay detects complexes by their altered migration in electrophoresis.
Experiment [7] shares this target. The experiment is described as follows: SEC-MALS; SiaC-SiaD complexes (wild type and SiaD motif mutants) at 2 mg/ml, WTC-030S5 column, 20 mM HEPES pH 7.0, 150 mM NaCl, DTT.
Experiment [8] has the same target. The experiment is described as follows: crystal structure; SiaC-SiaD complex (10 mg/ml) with GpCpp 1:5, sitting drops at 18°C, space group C222(1), 2.65 Å.
For experiment [9] the target is unchanged. The experiment in a line: SEC-MALS; SiaD alone at 4 mg/ml, WTC-030S5 column, 20 mM HEPES pH 7.0, 150 mM NaCl, 1 mM DTT. On the technique in general: SEC sorts molecules by how far they enter the pores of the column.
The target of experiment [10] is SiaD^S50A-Q54A (Pseudomonas aeruginosa). The experiment in a line: SEC-MALS; SiaC-SiaD complexes (wild type and SiaD motif mutants) at 2 mg/ml, WTC-030S5 column, 20 mM HEPES pH 7.0, 150 mM NaCl, DTT.
Experiment [11] addresses SiaD^S82A-Q86A (Pseudomonas aeruginosa). The description is as above.
The target of experiment [12] is SiaD (full length, sumo-His tag removed) (Pseudomonas aeruginosa). The experiment in a line: ITC; SiaD in the cell, SiaC or SiaC mutant in the syringe, 25°C, MicroCal iTC200 or PEAQ-ITC. On the technique in general: ITC needs no label: the signal is the heat of the interaction.
Experiment [13] has the same target. The experiment is described as follows: SPR; Biacore T200, protein amine-coupled to a CM5 chip (about 5000 RU), 25°C; running buffer 10 mM Tris-HCl, 150 mM NaCl, 0.05% P-20, pH 7.5; SiaC or SiaC^M3 at varying concentrations over SiaD; fits to a 2:1 interaction.

The Kd is the free concentration of one partner at which half of the binding sites on the other are occupied at equilibrium, for simple one-to-one binding. In general, stoichiometry N refers to the number of molecules, sites or subunits per partner or assembly.

On SiaD [1], `Nc1nc2c(ncn2[C@@H]2O[C@H](COP(=O)(O)OP(=O)(O)OP(=O)(O)O)[C@@H](O)[C@H]2O)c(=O)[nH]1` [GTP] returned a Kd of 12000 nM.
`Nc1nc2c(ncn2[C@@H]2O[C@H](COP(=O)(O)CP(=O)(O)OP(=O)(O)O)[C@@H](O)[C@H]2O)c(=O)[nH]1` [GpCpp]: the “X-ray crystal structure of SiaC-SiaD-GpCpp complex, 2.65 Å” value on SiaD [2] is given as “a non-hydrolyzable GTP analog GpCpp molecule was observed to bind in the active site of SiaD-A”.
On to `Nc1nc2c(ncn2[C@@H]2O[C@@H]3CO[P@](=O)(O)O[C@H]4[C@@H](O)[C@H](n5cnc6c(=O)[nH]c(N)nc65)O[C@@H]4CO[P@](=O)(O)O[C@H]3[C@H]2O)c(=O)[nH]1` [c-di-GMP], for which the “HPLC DGC activity assay with 50 μM c-di-GMP; thermal shift (+7.1 °C at 25 μM); S” value on SiaD [3] is recorded as “the enzyme activity of SiaD was inhibited by c-di-GMP more extensively than the SiaC–SiaD complex”.
As for “SiaD (full length, sumo-His tag removed) (enzyme)”, the stoichiometry N in [4] turned out to be 5; in experiment [5], 5; in experiment [6] it was 5; in experiment [7], 2; in experiment [8], 2; in experiment [9] it was 5.

B1: SiaC (sumo-His tag removed) (natural protein)
chain: MSDLHIPGTQSTPAIQGDWQAGRLSMQGDSYPENSYELFGQVIDWVERFLADGQRPLELDLRLLYLNTSSIKAMMDILDLLEEAHQGGRPVSLRWHYDRRNERVAELAEEFREDCSFPFAIQAHDE
For the molecule B1, the stoichiometry N (SiaC per SiaD (2:4 SiaD:SiaC)) in experiment [10] and in experiment [11] was 2 each time. This molecule returned a Kd in experiment [12] of 49.8 nM.

B2: SiaC-His (natural protein)
chain: MSDLHIPGTQSTPAIQGDWQAGRLSMQGDSYPENSYELFGQVIDWVERFLADGQRPLELDLRLLYLNTSSIKAMMDILDLLEEAHQGGRPVSLRWHYDRRNERVAELAEEFREDCSFPFAIQAHDE
For the molecule B2, the Kd in experiment [13] is 11.8 nM.

The values above are taken from article PMC8457831, “Structural basis for diguanylate cyclase activation by its binding partner in Pseudomonas aeruginosa” (eLife, 2021).
